We go through four sequences from patent US10562947B2, “Compositions and methods for preventing or treating diseases, conditions or processes characterized by aberrant fibroblast proliferation and extracellular matrix deposition” (MOERAE MATRIX, INC., priority 2011, dated 2020).

Holding throughout (test): Kinase Profiling Assay
Common to all, as to assay type: biochemical
Holding throughout (conditions): 100 μM peptide

One test deals with Aurora-B(h) (Homo sapiens, UniProt Q96GD4). The procedure, abridged: (§1)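 All 266 human kinases of a profiling service were assayed in duplicate to establish whether MK2 inhibitory peptides act specifically.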
A further test addresses CHK2(I157T)(h) (Homo sapiens, UniProt O96017, I157T). Summed up: as §1
For the next test, the target named is CaMKIIβ(h) (Homo sapiens, UniProt Q13554). Summed up:
as §1

A further test concerns the target T1, DCAMKL2(h) (Homo sapiens, UniProt Q8N568).
T1 sequence (Q8N568 1-766): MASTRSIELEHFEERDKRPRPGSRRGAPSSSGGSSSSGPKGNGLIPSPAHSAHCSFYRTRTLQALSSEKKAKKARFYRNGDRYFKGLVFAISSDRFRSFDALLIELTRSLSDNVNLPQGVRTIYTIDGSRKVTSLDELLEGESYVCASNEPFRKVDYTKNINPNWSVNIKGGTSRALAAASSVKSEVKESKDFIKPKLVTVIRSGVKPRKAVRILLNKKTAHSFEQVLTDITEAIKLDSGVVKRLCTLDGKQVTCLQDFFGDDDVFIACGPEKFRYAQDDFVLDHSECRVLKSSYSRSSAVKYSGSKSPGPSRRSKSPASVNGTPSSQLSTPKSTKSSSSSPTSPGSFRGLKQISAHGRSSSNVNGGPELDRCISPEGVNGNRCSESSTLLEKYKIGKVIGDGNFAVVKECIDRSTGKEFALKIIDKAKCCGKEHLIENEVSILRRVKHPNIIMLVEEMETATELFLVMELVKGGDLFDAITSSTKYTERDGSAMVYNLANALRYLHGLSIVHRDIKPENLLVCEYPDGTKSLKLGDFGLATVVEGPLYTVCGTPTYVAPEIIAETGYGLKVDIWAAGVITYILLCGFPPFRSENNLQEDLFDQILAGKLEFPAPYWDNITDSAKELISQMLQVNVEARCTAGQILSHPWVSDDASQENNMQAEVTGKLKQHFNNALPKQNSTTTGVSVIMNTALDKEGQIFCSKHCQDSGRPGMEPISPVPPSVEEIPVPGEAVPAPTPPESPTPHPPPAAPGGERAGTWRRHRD
Summed up: as §1

In a further test the target is FGFR2(h) (Homo sapiens, UniProt P21802). Summed up: as §1
The target of the next test is Fes(h) (Homo sapiens, UniProt P07332). The procedure, abridged: as §1
Another test has as its target T2, GSK3β(h) (Homo sapiens, UniProt P49841).
T2 construct: purchased Millipore
The procedure, abridged: as §1

The next test has as its target PKCβII(h) (Homo sapiens, UniProt P05771). Summed up:
as §1

The target in the next test is Pim-3(h) (Homo sapiens, UniProt Q86V86). Summed up:
as §1

The next test deals with Rsk4(h) (Homo sapiens, UniProt Q9UK32). The procedure, abridged: as §1
In a further test the target is T3, TBK1(h) (Homo sapiens, UniProt Q9UHD2).
T3 sequence (Q9UHD2 1-729): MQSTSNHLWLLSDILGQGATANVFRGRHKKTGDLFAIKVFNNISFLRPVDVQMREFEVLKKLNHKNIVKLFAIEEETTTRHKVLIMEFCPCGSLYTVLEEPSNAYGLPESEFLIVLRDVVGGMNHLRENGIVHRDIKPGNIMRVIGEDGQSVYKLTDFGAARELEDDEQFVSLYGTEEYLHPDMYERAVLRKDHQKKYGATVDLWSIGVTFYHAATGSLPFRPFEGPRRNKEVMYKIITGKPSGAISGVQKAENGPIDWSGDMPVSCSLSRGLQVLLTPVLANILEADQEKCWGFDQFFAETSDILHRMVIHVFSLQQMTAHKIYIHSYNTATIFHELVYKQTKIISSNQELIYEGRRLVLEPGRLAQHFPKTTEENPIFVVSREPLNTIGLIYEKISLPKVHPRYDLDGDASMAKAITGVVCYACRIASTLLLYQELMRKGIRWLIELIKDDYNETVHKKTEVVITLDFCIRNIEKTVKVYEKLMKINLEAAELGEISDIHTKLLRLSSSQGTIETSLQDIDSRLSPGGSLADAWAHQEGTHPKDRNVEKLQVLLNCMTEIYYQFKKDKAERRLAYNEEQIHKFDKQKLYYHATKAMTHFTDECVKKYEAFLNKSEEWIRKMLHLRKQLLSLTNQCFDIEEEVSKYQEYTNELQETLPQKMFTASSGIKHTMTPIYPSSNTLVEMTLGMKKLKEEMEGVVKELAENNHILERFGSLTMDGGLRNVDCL
Summed up: as §1

Another test concerns the target TLK2(h) (Homo sapiens, UniProt Q86UE8). The procedure, abridged:
as §1

Another test concerns the target WNK3(h) (Homo sapiens, UniProt Q9BYP7). The procedure, abridged:
as §1

In another test the target is CDK3/cyclinE(h) (Homo sapiens, UniProt Q00526). Summed up:
as §1

The target in the next test is T4, Hck(h) (Homo sapiens, UniProt P08631).
T4 construct: purchased Millipore
Summed up:
as §1

The target of a further test is MINK(h) (Homo sapiens, UniProt Q8N4C8). The procedure, abridged: as §1
The target in the next test is T5, SAPK4(h) (Homo sapiens, UniProt O15264).
T5 sequence (O15264 1-365): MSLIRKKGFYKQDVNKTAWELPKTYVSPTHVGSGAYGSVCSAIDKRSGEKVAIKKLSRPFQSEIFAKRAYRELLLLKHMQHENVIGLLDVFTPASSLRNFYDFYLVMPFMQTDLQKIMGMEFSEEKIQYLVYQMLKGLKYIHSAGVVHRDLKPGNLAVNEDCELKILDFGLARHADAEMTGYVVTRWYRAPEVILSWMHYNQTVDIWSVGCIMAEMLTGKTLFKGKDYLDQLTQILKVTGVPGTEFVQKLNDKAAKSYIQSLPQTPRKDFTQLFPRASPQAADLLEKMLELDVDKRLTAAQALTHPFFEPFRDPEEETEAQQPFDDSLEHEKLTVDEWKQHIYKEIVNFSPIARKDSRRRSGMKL
The procedure, abridged:
as §1

Sequence of WNK3(h) (Q9BYP7 whole entry): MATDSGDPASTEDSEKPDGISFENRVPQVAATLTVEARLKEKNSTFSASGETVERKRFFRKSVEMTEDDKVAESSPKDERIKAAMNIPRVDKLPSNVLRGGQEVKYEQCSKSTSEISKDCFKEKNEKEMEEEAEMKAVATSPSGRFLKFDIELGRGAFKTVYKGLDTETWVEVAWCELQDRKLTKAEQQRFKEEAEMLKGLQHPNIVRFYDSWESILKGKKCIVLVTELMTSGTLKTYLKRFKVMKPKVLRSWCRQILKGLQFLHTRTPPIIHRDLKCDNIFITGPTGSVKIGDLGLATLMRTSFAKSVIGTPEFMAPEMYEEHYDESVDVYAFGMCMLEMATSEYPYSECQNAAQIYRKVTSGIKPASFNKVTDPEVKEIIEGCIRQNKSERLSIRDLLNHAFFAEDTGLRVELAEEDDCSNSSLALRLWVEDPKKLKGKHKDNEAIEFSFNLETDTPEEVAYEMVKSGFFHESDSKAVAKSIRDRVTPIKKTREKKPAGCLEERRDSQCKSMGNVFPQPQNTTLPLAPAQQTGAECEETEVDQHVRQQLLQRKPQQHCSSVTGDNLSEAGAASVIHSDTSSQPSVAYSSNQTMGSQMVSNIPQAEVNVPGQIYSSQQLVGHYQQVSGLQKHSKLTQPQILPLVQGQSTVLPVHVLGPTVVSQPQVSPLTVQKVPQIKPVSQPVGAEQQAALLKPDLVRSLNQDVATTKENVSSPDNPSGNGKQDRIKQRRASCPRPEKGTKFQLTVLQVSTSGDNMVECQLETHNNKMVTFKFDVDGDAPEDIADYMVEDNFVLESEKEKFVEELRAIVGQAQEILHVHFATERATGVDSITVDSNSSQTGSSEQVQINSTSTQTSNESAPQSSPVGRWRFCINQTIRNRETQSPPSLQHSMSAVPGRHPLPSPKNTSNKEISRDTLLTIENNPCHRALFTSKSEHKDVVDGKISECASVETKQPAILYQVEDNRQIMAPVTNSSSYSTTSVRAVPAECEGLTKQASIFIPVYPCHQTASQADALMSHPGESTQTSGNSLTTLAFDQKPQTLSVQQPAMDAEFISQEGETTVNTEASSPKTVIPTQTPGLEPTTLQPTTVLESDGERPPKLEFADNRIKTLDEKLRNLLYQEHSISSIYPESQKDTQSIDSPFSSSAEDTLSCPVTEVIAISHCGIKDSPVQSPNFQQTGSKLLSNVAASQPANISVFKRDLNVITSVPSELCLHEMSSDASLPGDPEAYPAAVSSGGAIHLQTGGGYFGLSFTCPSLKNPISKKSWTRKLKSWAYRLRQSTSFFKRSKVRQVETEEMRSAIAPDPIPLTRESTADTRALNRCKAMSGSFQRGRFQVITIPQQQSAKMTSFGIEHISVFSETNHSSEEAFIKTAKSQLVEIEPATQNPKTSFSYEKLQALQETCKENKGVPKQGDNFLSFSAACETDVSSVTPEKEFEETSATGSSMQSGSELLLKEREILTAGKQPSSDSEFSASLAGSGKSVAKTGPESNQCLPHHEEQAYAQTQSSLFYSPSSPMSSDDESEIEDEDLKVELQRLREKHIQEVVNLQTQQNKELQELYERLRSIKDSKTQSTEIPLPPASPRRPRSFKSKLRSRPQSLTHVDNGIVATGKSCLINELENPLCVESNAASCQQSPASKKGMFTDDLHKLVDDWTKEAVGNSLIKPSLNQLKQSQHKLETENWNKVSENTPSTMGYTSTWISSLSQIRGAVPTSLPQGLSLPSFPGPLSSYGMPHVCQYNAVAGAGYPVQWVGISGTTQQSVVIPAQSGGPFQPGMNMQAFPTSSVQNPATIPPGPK
Sequence of Aurora-B(h) (Q96GD4 whole entry): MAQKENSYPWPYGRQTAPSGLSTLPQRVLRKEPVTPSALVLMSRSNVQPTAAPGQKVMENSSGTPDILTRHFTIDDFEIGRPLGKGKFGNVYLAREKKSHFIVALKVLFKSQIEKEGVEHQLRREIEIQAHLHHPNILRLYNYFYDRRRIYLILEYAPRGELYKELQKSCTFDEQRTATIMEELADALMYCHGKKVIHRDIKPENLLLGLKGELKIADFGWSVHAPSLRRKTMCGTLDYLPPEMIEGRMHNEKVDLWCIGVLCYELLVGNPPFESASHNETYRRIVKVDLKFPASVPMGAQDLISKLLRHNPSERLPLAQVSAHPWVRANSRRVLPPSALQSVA
Sequence of PKCβII(h) (P05771 1-673 isoform P05771-2): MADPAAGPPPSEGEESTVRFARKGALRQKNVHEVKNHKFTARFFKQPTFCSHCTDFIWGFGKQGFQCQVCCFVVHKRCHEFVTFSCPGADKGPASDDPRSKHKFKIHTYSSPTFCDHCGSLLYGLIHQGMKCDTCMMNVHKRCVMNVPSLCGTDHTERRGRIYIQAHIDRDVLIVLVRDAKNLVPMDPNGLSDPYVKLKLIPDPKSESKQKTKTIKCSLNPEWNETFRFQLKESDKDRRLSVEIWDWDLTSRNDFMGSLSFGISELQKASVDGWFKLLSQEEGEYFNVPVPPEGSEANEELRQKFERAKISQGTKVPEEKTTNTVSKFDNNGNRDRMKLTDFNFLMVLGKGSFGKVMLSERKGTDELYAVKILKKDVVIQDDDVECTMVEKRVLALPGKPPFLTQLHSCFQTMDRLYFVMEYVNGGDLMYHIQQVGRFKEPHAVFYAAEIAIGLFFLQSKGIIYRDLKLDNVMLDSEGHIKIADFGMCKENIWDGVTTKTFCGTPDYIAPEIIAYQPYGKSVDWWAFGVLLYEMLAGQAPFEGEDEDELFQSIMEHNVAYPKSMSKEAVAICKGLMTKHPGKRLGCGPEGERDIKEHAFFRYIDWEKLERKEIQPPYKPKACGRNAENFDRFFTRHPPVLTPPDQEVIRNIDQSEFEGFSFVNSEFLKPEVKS
T2 sequence (P49841 whole entry): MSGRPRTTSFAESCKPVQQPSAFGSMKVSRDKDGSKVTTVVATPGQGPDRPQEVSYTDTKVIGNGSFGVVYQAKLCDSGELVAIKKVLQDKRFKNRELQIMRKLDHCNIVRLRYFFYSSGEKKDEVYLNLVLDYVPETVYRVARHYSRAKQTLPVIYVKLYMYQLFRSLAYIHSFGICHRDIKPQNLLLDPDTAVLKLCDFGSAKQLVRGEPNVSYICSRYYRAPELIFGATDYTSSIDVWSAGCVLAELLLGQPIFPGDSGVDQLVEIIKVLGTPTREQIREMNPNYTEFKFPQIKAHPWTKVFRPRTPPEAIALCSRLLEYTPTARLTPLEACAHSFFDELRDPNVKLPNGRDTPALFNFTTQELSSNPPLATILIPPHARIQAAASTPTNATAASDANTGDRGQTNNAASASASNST
T4 sequence (P08631 whole entry): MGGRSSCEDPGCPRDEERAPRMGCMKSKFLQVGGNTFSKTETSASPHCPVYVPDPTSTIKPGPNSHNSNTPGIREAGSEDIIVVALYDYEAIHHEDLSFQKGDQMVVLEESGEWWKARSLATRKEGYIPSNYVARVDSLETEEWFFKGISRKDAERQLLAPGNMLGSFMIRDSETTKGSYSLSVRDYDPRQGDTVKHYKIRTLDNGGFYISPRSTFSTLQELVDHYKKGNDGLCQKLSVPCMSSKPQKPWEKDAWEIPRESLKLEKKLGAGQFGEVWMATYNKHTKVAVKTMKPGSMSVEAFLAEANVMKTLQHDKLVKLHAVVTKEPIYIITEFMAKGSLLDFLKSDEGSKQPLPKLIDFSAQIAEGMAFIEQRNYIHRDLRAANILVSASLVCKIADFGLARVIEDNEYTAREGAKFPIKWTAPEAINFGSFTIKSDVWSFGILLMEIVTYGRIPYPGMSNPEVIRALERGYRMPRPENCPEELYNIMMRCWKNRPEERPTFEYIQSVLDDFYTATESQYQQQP
Sequence of Fes(h) (P07332 whole entry): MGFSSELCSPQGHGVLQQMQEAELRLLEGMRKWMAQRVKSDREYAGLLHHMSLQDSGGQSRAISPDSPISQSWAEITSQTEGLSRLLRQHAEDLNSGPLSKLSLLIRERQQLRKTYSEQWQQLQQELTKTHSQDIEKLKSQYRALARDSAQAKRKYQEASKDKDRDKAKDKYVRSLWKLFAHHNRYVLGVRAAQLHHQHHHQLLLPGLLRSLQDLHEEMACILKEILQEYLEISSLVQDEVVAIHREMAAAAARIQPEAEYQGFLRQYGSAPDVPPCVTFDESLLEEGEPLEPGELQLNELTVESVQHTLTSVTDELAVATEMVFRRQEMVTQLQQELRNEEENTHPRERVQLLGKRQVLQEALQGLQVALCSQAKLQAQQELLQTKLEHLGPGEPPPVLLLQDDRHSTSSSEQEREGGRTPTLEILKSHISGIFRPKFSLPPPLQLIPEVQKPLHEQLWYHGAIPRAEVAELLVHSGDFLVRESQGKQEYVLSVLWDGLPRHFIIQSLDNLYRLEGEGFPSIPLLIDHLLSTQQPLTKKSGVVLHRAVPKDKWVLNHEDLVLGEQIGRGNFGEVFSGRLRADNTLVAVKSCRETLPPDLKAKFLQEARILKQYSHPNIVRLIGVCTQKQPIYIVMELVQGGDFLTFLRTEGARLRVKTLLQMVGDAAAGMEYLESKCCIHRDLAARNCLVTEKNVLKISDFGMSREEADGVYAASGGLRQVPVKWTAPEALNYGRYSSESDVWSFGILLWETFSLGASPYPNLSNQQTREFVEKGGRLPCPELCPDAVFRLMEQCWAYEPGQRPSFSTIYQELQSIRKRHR

For “YARAAARQARAKALNRQLGVA (Mammalian) [MMI-0200]”, in the test with Aurora-B(h), the “Aurora-B(h) % activity” value is listed as 166%. In addition, the “CHK2(I157T)(h) % activity” value in the test with CHK2(I157T)(h) was determined as 85%. For the same sequence, the “CaMKIIβ(h) % activity” value in the test with CaMKIIβ(h) is reported as 53%. Moreover, the “DCAMKL2(h) % activity” value with DCAMKL2(h) is on record as 131%. Moreover, in the test with FGFR2(h), the “FGFR2(h) % activity” value is given as 73%. The “Fes(h) % activity” value in the test with Fes(h) came to 74%. The “GSK3β(h) % activity” value with GSK3β(h) came out at 132%. Also, in the test with PKCβII(h), the “PKCβII(h) % activity” value was 100%. Further, the “Pim-3(h) % activity” value with Pim-3(h) is reported as 94%. In addition, the “Rsk4(h) % activity” value with Rsk4(h) was 125%. Further, the “TBK1(h) % activity” value with TBK1(h) came out at 98%. For the same sequence, in the test with TLK2(h), the “TLK2(h) % activity” value is 129%. Further, the “WNK3(h) % activity” value in the test with WNK3(h) is recorded as 97%.
For the sequence “HRRIKAWLKKIKALARQLGVAA (Mammalian) [MMI-0500]”, the “Aurora-B(h) % activity” value with Aurora-B(h) came out at 5%. For the same sequence, the “CDK3/cyclinE(h) % activity” value with CDK3/cyclinE(h) was 8%. Further, in the test with CHK2(I157T)(h), the “CHK2(I157T)(h) % activity” value was found to be 3%. Besides, in the test with CaMKIIβ(h), the “CaMKIIβ(h) % activity” value is reported as 3%. For the same sequence, the “DCAMKL2(h) % activity” value with DCAMKL2(h) was 56%. For the same sequence, in the test with FGFR2(h), the “FGFR2(h) % activity” value is on record as 12%. Besides, in the test with Fes(h), the “Fes(h) % activity” value came to 23%. For the same sequence, the “GSK3β(h) % activity” value with GSK3β(h) stood at 238%. Also, the “Hck(h) % activity” value with Hck(h) was found to be 78%. The “MINK(h) % activity” value in the test with MINK(h) turned out to be 5%. In the test with PKCβII(h), the “PKCβII(h) % activity” value was determined as 3%. The “Pim-3(h) % activity” value in the test with Pim-3(h) was determined as 37%. Further, in the test with Rsk4(h), the “Rsk4(h) % activity” value amounted to 29%. Also, in the test with SAPK4(h), the “SAPK4(h) % activity” value was determined as 48%. The “TBK1(h) % activity” value with TBK1(h) was 16%. The “TLK2(h) % activity” value with TLK2(h) is recorded as 133%. Besides, the “WNK3(h) % activity” value with WNK3(h) was found to be 9%.
On to KAFAKLAARLYRKALARQLGVAA [MMI-0400], for which the “Aurora-B(h) % activity” value in the test with Aurora-B(h) is on record as 150%. Also, the “CDK3/cyclinE(h) % activity” value with CDK3/cyclinE(h) is on record as 92%. In addition, in the test with CHK2(I157T)(h), the “CHK2(I157T)(h) % activity” value is given as 41%. For the same sequence, the “CaMKIIβ(h) % activity” value in the test with CaMKIIβ(h) came to 11%. The “DCAMKL2(h) % activity” value with DCAMKL2(h) is 70%. For the same sequence, the “FGFR2(h) % activity” value with FGFR2(h) is 18%. Moreover, in the test with Fes(h), the “Fes(h) % activity” value is given as 16%. The “GSK3β(h) % activity” value with GSK3β(h) amounted to 202%. The “Hck(h) % activity” value in the test with Hck(h) amounted to 72%. Also, the “MINK(h) % activity” value with MINK(h) is listed as 52%. Further, in the test with PKCβII(h), the “PKCβII(h) % activity” value is on record as 75%. In the test with Pim-3(h), the “Pim-3(h) % activity” value was 80%. For the same sequence, the “Rsk4(h) % activity” value with Rsk4(h) was 91%. The “SAPK4(h) % activity” value with SAPK4(h) came to 91%. In addition, the “TBK1(h) % activity” value in the test with TBK1(h) stood at 39%. For the same sequence, in the test with TLK2(h), the “TLK2(h) % activity” value is 151%. Besides, the “WNK3(h) % activity” value with WNK3(h) was determined as 74%.
On to FAKLAARLYRKALARQLGVAA [MMI-0300], for which the “Aurora-B(h) % activity” value in the test with Aurora-B(h) turned out to be 128%. In addition, the “CDK3/cyclinE(h) % activity” value with CDK3/cyclinE(h) is listed as 94%. Moreover, in the test with CHK2(I157T)(h), the “CHK2(I157T)(h) % activity” value is 43%. In addition, the “CaMKIIβ(h) % activity” value with CaMKIIβ(h) is reported as 2%. The “DCAMKL2(h) % activity” value with DCAMKL2(h) stood at 81%. The “FGFR2(h) % activity” value in the test with FGFR2(h) is reported as 14%. Besides, the “Fes(h) % activity” value with Fes(h) is recorded as 20%. Further, the “GSK3β(h) % activity” value with GSK3β(h) came to 205%. Also, the “Hck(h) % activity” value in the test with Hck(h) is 72%. For the same sequence, the “MINK(h) % activity” value with MINK(h) worked out at 48%. Moreover, in the test with PKCβII(h), the “PKCβII(h) % activity” value is 82%. In addition, the “Pim-3(h) % activity” value with Pim-3(h) came to 80%. Also, the “Rsk4(h) % activity” value with Rsk4(h) is listed as 90%. The “SAPK4(h) % activity” value in the test with SAPK4(h) amounted to 96%. Also, in the test with TBK1(h), the “TBK1(h) % activity” value is 37%. Besides, the “WNK3(h) % activity” value with WNK3(h) amounted to 77%.
